How the values were obtained:
IgG [1] = assay: column chromatography, ligand coupled to agarose, IgG loaded at 1 mg/ml, before alkali treatment
IgG [2] = assay: SPR, Biacore 4000; IgG amine-coupled to CM5 chip, C domain construct as analyte

(Native C-domain) 4
Initial IgG capability (dynamic binding capacity at 10% breakthrough) (IgG [1]): 165 mg/mL
Kd (IgG [2]): 7.18 nM
